# Target: His-tagged human prothrombin (human) (UniProt P00734)
# Assay: binding ELISA; His-tagged human prothrombin coated on plate
substance,measurement,value
Ichorcumab (antibody),EC50,0.282 µg/mL
